# Measured values as given in US20160272937A1, “METHODS OF GENERATING INTERMEDIATE MESODERM CELLS FROM HUMAN PLURIPOTENT STEM CELLS” (THE BRIGHAM AND WOMEN'S HOSPITAL, INC., priority 2013, published 2016).
# B1: activin A: human activin A (R&D systems) (protein, UniProt P08476 311-426, looked up)
# Inhibin beta A chain: GLECDGKVNICCKKQFFVSFKDIGWNDWIIAPSGYHANYCEGECPSHIAGTSGSSLSFHSTVINHYRMRGHSPFANLKSCCVPTKLRPMSMLYYDDGQNIIKKDIQNMIVEECGCS
# modifications: Inhibin beta A chain
# Columns and labels:
# Format in all cases: cell-based, human
# [1] = test system: hPSC-derived PAX2+LHX1+ cells; assay: SIX2 induction in PAX2+LHX1+ cells (cap mesenchyme differentiation, immunofluorescence); details: activin A 10 ng/ml added on day 3, 5 additional days
# CHIR-induced hPSCs [2] = assay: Definitive endoderm differentiation of CHIR-induced hPSCs (SOX17/FOXA2 immunostaining)
# Method: Mesendoderm differentiation—the media is changed to Advanced RPMI (A-RPMI, Invitrogen) supplemented with 1×L-glutamax and 1× penicillin/streptomycin and either CHIR99021 (CHIR, Stemgent), human Wnt3a (R&D systems), and/or human activin A (R&D systems) at the doses described. […] Hepatic differentiation—cells at the definitive endoderm stage are treated with A-RPMI+1×L-glu+1×P/S+1×B27 supplement (Invitrogen)+20 ng/mL BMP-4 (R&D systems)+10 ng/mL FGF2 (Invitrogen) for 5 days, then A-RPMI+1×L-glu+1×P/S+1×B27+10 ng/mL HGF for 5 days, then HCM Hepatocyte Culture Medium (Lonza) supplemented with 20 ng/mL Oncostatin M and 10 ng/mL HGF (Peprotech) for 5 days. Pancreatic differentiation—cells at the definitive endoderm stage are treated with DMEM/F12+2% FBS (Hyclone)+50 ng/mL FGF7 (R&D systems) for 2 days, then high-glucose DMEM (Mediatech)+1% B27+2 μM retinoic acid (Sigma)+0.25 μM KAAD cyclopamine (EMD Millipore)+100 ng/mL recombinant human Noggin (R&D systems) for 4 days, then high-glucose DMEM+1% B27+100 ng/mL Noggin+300 nM indolactam V (Stemgent)+1 μM ALK5 inhibitor II (Axxora) for 4 days. […]
# Nuclei can be counterstained with DAPI (Sigma). […] Immunofluorescence is visualized using an inverted fluorescence microscope (Nikon Eclipse Ti, Tokyo, Japan). Quantification is performed by counting a minimum of five random fields at 10× magnification. […]
# CHIR-induced hPSCs [3] = assay: Growth factor screen for PAX2 induction in CHIR-induced mesendodermal cells (immunostaining); details: CHIR 24 hours then increasing doses of factor, day 4
# Method: For immunofluorescence studies, cultures are washed once with PBS (Invitrogen) and fixed in 4% paraformaldehyde for 15 min at room temperature (RT). Fixed cells are then washed three times in PBS and incubated in blocking buffer (0.3% Triton X-100 (Fisher Scientific) and 5% normal donkey serum (EMD Millipore) in PBS) for 1 hour at RT.
# The cells are then incubated with primary antibody overnight at 4° C. or for 2 hours at RT in antibody dilution buffer (0.3% Triton X-100 and 1% BSA (Roche) in PBS). Cells are then washed three times in PBS and incubated with Alexa Fluor 488-, 555-, or 647-conjugated secondary antibodies (1:500) (Molecular Probes) in antibody dilution buffer for 1 hour at RT. For immunostaining with Biotinylated Lotus Tetragonolobus Lectin (LTL, Vector Labs), a Streptavidin/Biotin Blocking Kit (Vector Labs) and Alexa Fluor 488- or 647-conjugated Streptavidin (Molecular Probes) were used according to manufacturer's instructions.
# Nuclei can be counterstained with DAPI (Sigma). […] Immunofluorescence is visualized using an inverted fluorescence microscope (Nikon Eclipse Ti, Tokyo, Japan). Quantification is performed by counting a minimum of five random fields at 10× magnification.
# PAX2 is selected since it is an early marker of IM, and, unlike the markers OSR1 or LHX1 which are also expressed in the adjacent lateral plate mesoderm, PAX2 expression is restricted in mesoderm to the IM.
molecule,measurement,setting,value
B1,SIX2+ cells by immunofluorescence,[1],small populations of SIX2+ cells
same,number of SOX17+ cells,"CHIR-induced hPSCs [2]; activin A added after 48 hours of CHIR treatment, 4 days of differentiation",markedly reduced
same,efficiency of SOX17+FOXA2+ definitive endoderm generation,"CHIR-induced hPSCs [2]; high doses of activin A after 24 hours of CHIR treatment, 2-3 days of subsequent differentiation",greater than 95%
same,PAX2 expression,CHIR-induced hPSCs [3],no PAX2 expression
